Measured values from patent US20110076723A1, “ANTIBODY-PEPTIDE FUSED SYNERGIBODY” (SAMSUNG ELECTRONICS CO., LTD., priority 2008, published 2011).
Where a SMILES comes first, the peptide text is derived from it. Bridges are numbered along the chain shown (N, C = ends).

B1: Syn-Ang-VEGFR-11: fused protein synergibody SAITAng-2-3 × DTN6VEGFR-2-1, peptide at C-terminal of heavy chain (protein)
heavy (part 1 of 2): DVQLVESGGGLVQPGGSRKLSCAASGFTFSSFGMHWVRQAPEKGLEWVAYISSDSSTIYYADTVKGRFTISRDNPKNTLFLQMTSLRSEDTAMYYCAREGGYDDYYAMDYWGQGTSVTVSS
heavy (part 2 of 2): TGSDDLCYTFPCMHY
light: DIQMTQSPASQSASLGESVTITCLASQTIGTWLAWYQQKPGKSPQLLIYAATSLADGVPSRFSGSGSGTKFSFKISSLQAEDFVSYYCQQLYSIPLTFGGGTKLEIK
modifications: left off: a dimerising Fc or GST
notes: fused protein synergibody SAITAng-2-3 × DTN6VEGFR-2-1, peptide at C-terminal of heavy chain
B2: Syn-Ang-VEGFR-6: fused protein synergibody SAITAng-2-2 × DTN6VEGFR-2-1, peptide at C-terminal of heavy chain (protein)
heavy (part 1 of 2): QVQLQQSGPELVKPGASVKMSCKASGYTFTDYVISWVKQRTGQGLEWIGEIYPGSGSTYYNEKFKGKASLTADKSSNTAYMQLSSLTSADSAVYFCVRSRGDYYAMDYWGQGTSVTVSS
heavy (part 2 of 2): TGSDDLCYTFPCMHY
light: DIQMTQSPSSLSASLGGKVTITCKASQDINNYITWYQHKPGKGPRLLIHYTSTLQPGIPSRFSGSGSGRDYSFSISNLEPEDIATYYCLQYDNLLTFGGGTKLEIK
modifications: left off: a dimerising Fc or GST
notes: fused protein synergibody SAITAng-2-2 × DTN6VEGFR-2-1, peptide at C-terminal of heavy chain
B3: Syn-Ang-VEGFR-9: fused protein synergibody SAITAng-2-2 × DTN10VEGFR-2-4, peptide at C-terminal of heavy chain (protein)
heavy (part 1 of 2): QVQLQQSGPELVKPGASVKMSCKASGYTFTDYVISWVKQRTGQGLEWIGEIYPGSGSTYYNEKFKGKASLTADKSSNTAYMQLSSLTSADSAVYFCVRSRGDYYAMDYWGQGTSVTVSS
heavy (part 2 of 2): TGSGRMCDGSGPPTNCWFT
light: DIQMTQSPSSLSASLGGKVTITCKASQDINNYITWYQHKPGKGPRLLIHYTSTLQPGIPSRFSGSGSGRDYSFSISNLEPEDIATYYCLQYDNLLTFGGGTKLEIK
modifications: left off: a dimerising Fc or GST
notes: fused protein synergibody SAITAng-2-2 × DTN10VEGFR-2-4, peptide at C-terminal of heavy chain
B4: Syn-Ang-VEGFR-10: fused protein synergibody SAITAng-2-2 × DTN11VEGFR-2-5, peptide at C-terminal of heavy chain (protein)
heavy (part 1 of 2): QVQLQQSGPELVKPGASVKMSCKASGYTFTDYVISWVKQRTGQGLEWIGEIYPGSGSTYYNEKFKGKASLTADKSSNTAYMQLSSLTSADSAVYFCVRSRGDYYAMDYWGQGTSVTVSS
heavy (part 2 of 2): PGSQGYCHLNMRYQWICDSE
light: DIQMTQSPSSLSASLGGKVTITCKASQDINNYITWYQHKPGKGPRLLIHYTSTLQPGIPSRFSGSGSGRDYSFSISNLEPEDIATYYCLQYDNLLTFGGGTKLEIK
modifications: left off: a dimerising Fc or GST
notes: fused protein synergibody SAITAng-2-2 × DTN11VEGFR-2-5, peptide at C-terminal of heavy chain
B5: Syn-Ang-VEGFR-8: fused protein synergibody SAITAng-2-2 × DTN9VEGFR-2-3, peptide at C-terminal of heavy chain (protein)
heavy (part 1 of 2): QVQLQQSGPELVKPGASVKMSCKASGYTFTDYVISWVKQRTGQGLEWIGEIYPGSGSTYYNEKFKGKASLTADKSSNTAYMQLSSLTSADSAVYFCVRSRGDYYAMDYWGQGTSVTVSS
heavy (part 2 of 2): EAGAYWCKAWGLSPCLVT
light: DIQMTQSPSSLSASLGGKVTITCKASQDINNYITWYQHKPGKGPRLLIHYTSTLQPGIPSRFSGSGSGRDYSFSISNLEPEDIATYYCLQYDNLLTFGGGTKLEIK
modifications: left off: a dimerising Fc or GST
notes: fused protein synergibody SAITAng-2-2 × DTN9VEGFR-2-3, peptide at C-terminal of heavy chain
B6: Syn-Ang-VEGFR-7: fused protein synergibody SAITAng-2-2 × DTN8VEGFR-2-2, peptide at C-terminal of heavy chain (protein)
heavy (part 1 of 2): QVQLQQSGPELVKPGASVKMSCKASGYTFTDYVISWVKQRTGQGLEWIGEIYPGSGSTYYNEKFKGKASLTADKSSNTAYMQLSSLTSADSAVYFCVRSRGDYYAMDYWGQGTSVTVSS
heavy (part 2 of 2): EAGKETCGYEWQYCPRP
light: DIQMTQSPSSLSASLGGKVTITCKASQDINNYITWYQHKPGKGPRLLIHYTSTLQPGIPSRFSGSGSGRDYSFSISNLEPEDIATYYCLQYDNLLTFGGGTKLEIK
modifications: left off: a dimerising Fc or GST
notes: fused protein synergibody SAITAng-2-2 × DTN8VEGFR-2-2, peptide at C-terminal of heavy chain

System: HUVEC
Test: Cell-based functional assay, endothelial cell tube formation (BD BioCoat Angiogenesis System)
Design: species or system human
Details: 18 hours, unrelated control group 12,227 ± 1,232; for Length of the entire tube of HUVEC (2 × 10^4 cells) (pixels): 5 μM synthesized peptide; for Length of entire tube of HUVEC (2 × 10^4 cells) (pixels): 5 μM fused protein synergibody
Protocol: Chimeric antibodies may be screened by functional assays such as cell-based assay for inhibition activity. In this example, BD BioCoat™ Angiogenesis System-Endothelial Cell Tube Formation (BD Biosciences) is used. BD Falcon 96-well Black/Clear plate coated with BD Matrigel Matrix that had been stored at −20° C. is slowly melted at 4° C. for 6 hours, and the mat cover of the plate is removed inside a sterile clean bench. Then it is left at 37° C. , 5% CO2 for 30 minutes so that the Matrigel™ Matrix would form polymers. Then it is made into a suspension by treating HUVEC, cultured on a petridish containing EGM-2 MV (Lonza) medium added with 10% fetal bovine serum to 70 to 80% confluence, with 0.5% Trypsin-EDTA (Gibco). Then it is resuspended in a culture medium containing 10% fetal bovine serum to a cell concentration of 4×10^5 cells/ml. At this time, 5 μM of each anti-Ang-2 chimeric antibodies expressed and purified in Section 5 above are also added and resuspended. Then 50 μl (about 2×10^4 cells) of each of the suspension is added to each well of the plate and incubated at 37° C. , 5% CO2 for 18 hours. Then the medium is removed and each well is washed twice with 100 μl of Hanks' balanced salt solution (HBSS, Invitrogen) ensuring that the tubes of the cells formed on BD Matrigel™ Matrix are not damaged. 50 μl of calcein AM (BD sciences) dissolved in HBSS at the concentration of 8 μg/ml is added to each well. The plate is then left to react at 37° C., 5% CO2 for 30 minutes and the calcein AM (BD sciences) solution is removed and washed twice with HBSS. Lastly, an image of the length of the entire tube of HUVEC formed on BD Matrigel™ Matrix is obtained on a fluorescent microscope and analyzed by using MetaMorph® software (Universal Imaging Corporation™, http://www.moleculardevices.com).
The peptides synthesized in Section 6A above are screened by cell-based functional assay for inhibition activity. The method described in Example 1, Section 7 is used, except that 5 μM synthesized peptides are added instead of anti-Ang-2 antibodies.
The fused protein synergibodies prepared in Section 1 above are screened using cell-based functional assay for inhibition activity. The method described in Example 1, Section 7 is used, except that, in this example, 5 μM of fused protein synergibodies are added instead of anti-Ang-2 antibodies.

Row | Molecule | Length of the entire tube of HUVEC (2 × 10^4 cells) (pixels) | Length of entire tube of HUVEC (2 × 10^4 cells) (pixels)
1 | C[C@H](NC(=O)[C@@H](N)CCC(=O)O)C(=O)NCC(=O)N[C@@H](CCCCN)C(=O)N[C@@H](CCC(=O)O)C(=O)N[C@H](C(=O)N[C@H]1CSSC[C@@H](C(=O)N2CCC[C@H]2C(=O)N[C@@H](CCCNC(=N)N)C(=O)N2CCC[C@H]2C(=O)O)NC(=O)[C@H](Cc2ccc(O)cc2)NC(=O)[C@H](CCC(N)=O)NC(=O)[C@H](Cc2c[nH]c3ccccc23)NC(=O)[C@H](CCC(=O)O)NC(=O)[C@H](Cc2ccc(O)cc2)NC(=O)CNC1=O)[C@@H](C)O [DTN8VEGFR-2-2] (H-EAGKETCGYEWQYCPRP-OH; disulfide 7-14; N-terminus and C-terminus assumed) | 10,891 ± 1,014 pixels | 
2 | CC[C@H](C)[C@@H]1NC(=O)[C@H](Cc2c[nH]c3ccccc23)NC(=O)[C@H](CCC(N)=O)NC(=O)[C@H](Cc2ccc(O)cc2)NC(=O)[C@H](CCCNC(=N)N)NC(=O)[C@H](CCSC)NC(=O)[C@H](CC(N)=O)NC(=O)[C@H](CC(C)C)NC(=O)[C@H](Cc2c[nH]cn2)NC(=O)[C@@H](NC(=O)[C@H](Cc2ccc(O)cc2)NC(=O)CNC(=O)[C@H](CCC(N)=O)NC(=O)[C@H](CO)NC(=O)CNC(=O)[C@@H]2CCCN2)CSSC[C@@H](C(=O)N[C@@H](CC(=O)O)C(=O)N[C@@H](CO)C(=O)N[C@@H](CCC(=O)O)C(=O)O)NC1=O [DTN11VEGFR-2-5] (H-PGSQGYCHLNMRYQWICDSE-OH; disulfide 7-17; N-terminus and C-terminus assumed) | 11,896 ± 1,159 pixels | 
3 | CC(C)C[C@@H]1NC(=O)CNC(=O)[C@H](Cc2c[nH]c3ccccc23)NC(=O)[C@H](C)NC(=O)[C@H](CCCCN)NC(=O)[C@@H](NC(=O)[C@H](Cc2c[nH]c3ccccc23)NC(=O)[C@H](Cc2ccc(O)cc2)NC(=O)[C@H](C)NC(=O)CNC(=O)[C@H](C)NC(=O)[C@@H](N)CCC(=O)O)CSSC[C@@H](C(=O)N[C@@H](CC(C)C)C(=O)N[C@H](C(=O)N[C@H](C(=O)O)[C@@H](C)O)C(C)C)NC(=O)[C@@H]2CCCN2C(=O)[C@H](CO)NC1=O [DTN9VEGFR-2-3] (H-EAGAYWCKAWGLSPCLVT-OH; disulfide 7-15; N-terminus and C-terminus assumed) | 12,101 ± 869 pixels | 
4 | CSCC[C@H](NC(=O)[C@H](CCCNC(=N)N)NC(=O)CNC(=O)[C@H](CO)NC(=O)CNC(=O)[C@@H](N)[C@@H](C)O)C(=O)N[C@H]1CSSC[C@@H](C(=O)N[C@@H](Cc2c[nH]c3ccccc23)C(=O)N[C@@H](Cc2ccccc2)C(=O)N[C@H](C(=O)O)[C@@H](C)O)NC(=O)[C@H](CC(N)=O)NC(=O)[C@H]([C@@H](C)O)NC(=O)[C@@H]2CCCN2C(=O)[C@@H]2CCCN2C(=O)CNC(=O)[C@H](CO)NC(=O)CNC(=O)[C@H](CC(=O)O)NC1=O [DTN10VEGFR-2-4] (H-TGSGRMCDGSGPPTNCWFT-OH; disulfide 7-16; N-terminus and C-terminus assumed) | 10,773 ± 992 pixels | 
5 | CSCC[C@H](NC(=O)[C@@H]1CSSC[C@H](NC(=O)[C@H](CC(C)C)NC(=O)[C@H](CC(=O)O)NC(=O)[C@H](CC(=O)O)NC(=O)[C@H](CO)NC(=O)CNC(=O)[C@@H](N)[C@@H](C)O)C(=O)N[C@@H](Cc2ccc(O)cc2)C(=O)N[C@@H]([C@@H](C)O)C(=O)N[C@@H](Cc2ccccc2)C(=O)N2CCC[C@H]2C(=O)N1)C(=O)N[C@@H](Cc1c[nH]cn1)C(=O)N[C@@H](Cc1ccc(O)cc1)C(=O)O [DTN6VEGFR-2-1] (H-TGSDDLCYTFPCMHY-OH; disulfide 7-12; N-terminus and C-terminus assumed) | 11,093 ± 1,308 pixels | 
6 | B1 |  | 3,925 ± 675 pixels
7 | B2 |  | 6,157 ± 1,141 pixels
8 | B3 |  | 6,055 ± 779 pixels
9 | B4 |  | 5,898 ± 1,037 pixels
10 | B5 |  | 6,244 ± 935 pixels
11 | B6 |  | 5,935 ± 995 pixels
